Columns and labels:
HUVEC cells = assay: In vitro angiogenesis (matrigel tube formation) assay; format: cell-based, human; details: in the absence of plasma; rt-PA 1 μg/ml, captopril 0.1 μM
Description: In Vitro Angiogenesis (matrigel tube formation) Assay. Unpolymerized matrigel (7 mg/ml) was placed in the wells (100 μl/well) of a pre-chilled 48-well cell culture plate and then incubated at 37° C. for 30-45 minutes. HUVEC cells were harvested in trypsin and resuspended in EC medium (4×10^4 in 300 μl). Cells were treated with the different agents before plated onto the matrigel-coated plates. […] Microphotographs of the center of each well at low power (40×) were taken with a SPOT camera (Diagnostic Instruments Inc; Sterling Heights, Mich.) and the aid of an imaging capture software (Compix Inc Imaging Systems; Township, Pa.). The microphotographs were quantitatively analyzed (total tube length) with the Simple PCI imaging analysis software (Compix).
Matrigel tube formation assays. Samples collected from the purification process were exchanged into 1×PBS and reconstituted into 1× concentration (by volume) compared to the input tPA/captopril-treated plasma. They were tested in the matrigel tube formation assays at 10% (v/v) as follows. […] Tube formation was examined (4× magnification) through an inverted phase contrast microscope (Nikon Corporation; Tokyo, Japan) and recorded by a Spot RT camera (Diagnostic Instruments Inc; Sterling Heights, Mich.) using an automated image capture software (Compix Inc Imaging Systems; Township, Pa.).

[1] = tested on: 4T1 murine breast cancer cell line; assay: Primary tumor growth of transfected 4T1 cells in BALB/c mice; format: in vivo; details: stable expression in 4T1 cells, mammary pad of BALB/c mice, vs empty vector, five weeks
Source text: Construction of mutant uPA clones and cell transfection. We chose to pursue a genetic approach, in which we stably transfected an aggressive and highly metastatic murine breast cancer cell line (4T1) with the genes for wild type uPA, tPA and a receptor binding mutant of uPA (uPAm). We inserted the cDNA encoding murine tPA into pcDNA 3.1 (+) (Invitrogen), a CMV driven mammalian expression vector, by restriction enzyme digestion of BamHI and NheI. Wild type uPA cDNA was inserted to the pcDNA 3.1 (+) expression vector and the transfected into 4T1 cells in a similar fashion as described for the tPA cDNA. Residues 22, 27, 29 and 30 on the growth factor domain of the murine uPA molecule have been implicated in binding to mouse uPAR.
The pcDNA 3.1-tPA, pcDNA 3.1-wild type uPA, pcDNA 3.1-uPAm constructs, as well as an empty vector control were introduced into 4T1 cells by transfection using lipofectamine (Gibco-BRL) reagent. We selected 12-14 stable single clones in each group with 500 ug/mL of hygromycin. Each of the clones was evaluated for generation of the gene of interest by northern blot. The clones that had the highest generation of the genes of interest were selected. […]
Experiments using transfected tumor cells. […] Primary tumor size was measured every other day for a total of five weeks using calipers and calculated using the standard formula (width2×length×0.52). […]

| Molecule | inhibition of tube formation (HUVEC cells) | inhibition of primary tumor growth [1] |
| --- | --- | --- |
| rt-PA: rt-PA (Genentech), recombinant tissue plasminogen activator; called tPA in Example 2 (protein, UniProt P00750 36-562, looked up, alteplase) Tissue-type plasminogen …: SYQVICRDEKTQMIYQQHQSWLRPVLRSNRVEYCWCNSGRAQCHSVPVKSCSEPRCFNGGTCQQALYFSDFVCQCPEGFAGKCCEIDTRATCYEDQGISYRGTWSTAESGAECTNWNSSALAQKPYSGRRPDAIRLGLGNHNYCRNPDRDSKPWCYVFKAGKYSSEFCSTPACSEGNSDCYFGNGSAYRGTHSLTESGASCLPWNSMILIGKVYTAQNPSAQALGLGKHNYCRNPDGDAKPWCHVLKNRRLTWEYCDVPSCSTCGLRQYSQPQFRIKGGLFADIASHPWQAAIFAKHRRSPGERFLCGGILISSCWILSAAHCFQERFPPHHLTVILGRTYRVVPGEEEQKFEVEKYIVHKEFDDDTYDNDIALLQLKSDSSRCAQESSVVRTVCLPPADLQLPDWTECELSGYGKHEALSPFYSERLKEAHVRLYPSSRCTSQHLLNRTVTDNMLCAGDTRSGGPQANLHDACQGDSGGPLVCLNDGRMTLVGIISWGLGCGQKDVPGVYTKVTNYLDWIRDNMRP | did not cause significant inhibition of tube formation |  |
| tPA: murine tPA expressed from pcDNA 3.1 in 4T1 cells (not the rt-PA drug) (protein, UniProt P11214 33-559, looked up) Tissue-type plasminogen …: SYRATCRDEPTQTTYQQHQSWLRPMLRSSRVEYCRCNSGLVQCHSVPVRSCSEPRCFNGGTCQQALYFSDFVCQCPDGFVGKRCDIDTRATCFEEQGITYRGTWSTAESGAECINWNSSVLSLKPYNARRPNAIKLGLGNHNYCRNPDRDLKPWCYVFKAGKYTTEFCSTPACPKGKSEDCYVGKGVTYRGTHSLTTSQASCLPWNSIVLMGKSYTAWRTNSQALGLGRHNYCRNPDGDARPWCHVMKDRKLTWEYCDMSPCSTCGLRQYKRPQFRIKGGLYTDITSHPWQAAIFVKNKRSPGERFLCGGVLISSCWVLSAAHCFLERFPPNHLKVVLGRTYRVVPGEEEQTFEIEKYIVHEEFDDDTYDNDIALLQLRSQSKQCAQESSSVGTACLPDPNLQLPDWTECELSGYGKHEASSPFFSDRLKEAHVRLYPSSRCTSQHLFNKTVTNNMLCAGDTRSGGNQDLHDACQGDSGGPLVCMINKQMTLTGIISWGLGCGQKDVPGVYTKVTNYLDWIHDNMKQ |  | significantly inhibit tumor cell growth |

Reference: patent US20050232925A1, “Protease activity of thrombin inhibits angiogenesis” (priority 2002, published 2005)
